Reference: the supplement of paper PMC9112550, “Optimization of the antimicrobial peptide Bac7 by deep mutational scanning” (BMC Biology, 2022)

What follows are sequences tested on Escherichia coli TOP10 (assay: shrunken log2 fold change of peptide-encoding DNA abundance (4.5 h post-induction vs induction); higher = less antimicrobial activity (less host growth inhibition)). Conditions: time post-induction: 4.5 h; library: site-saturation at positions 5, 18, 19, 20.
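Further: peptides expressed intracellularly from a pBAD plasmid library in pooled LB shake-flask culture, induced with 0.3% L-arabinose, DNA abundance read by NGS, three biological replicates, DESeq2 with apeglm shrinkage.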

Sequence	shrunken log2 fold change
RRIRNRPPRLPRPRPRPMQSPRP	-0.0939
RRIRFRPPRLPRPRPRPHMFPRP	-0.21
RRIRHRPPRLPRPRPRPTNKPRP	-0.557
RRIRSRPPRLPRPRPRPMFWPRP	0.332
RRIRYRPPRLPRPRPRPHQFPRP	-0.984
RRIRYRPPRLPRPRPRPYRWPRP	-0.175
RRIRNRPPRLPRPRPRPSRYPRP	-0.000156
RRIRTRPPRLPRPRPRPMPTPRP	0.0982
RRIRKRPPRLPRPRPRPSTMPRP	-0.145
RRIRLRPPRLPRPRPRPNEFPRP	-0.168
RRIRNRPPRLPRPRPRPPDRPRP	0.00517
RRIRKRPPRLPRPRPRPVLTPRP	0.342
RRIRIRPPRLPRPRPRPMTTPRP	0.0113
RRIRYRPPRLPRPRPRPHRAPRP	-0.213
RRIRARPPRLPRPRPRPNKDPRP	-0.294
RRIRSRPPRLPRPRPRPFRAPRP	-0.0568
RRIRVRPPRLPRPRPRPTMFPRP	-0.158
RRIRDRPPRLPRPRPRPPQSPRP	0.613
RRIRARPPRLPRPRPRPAPFPRP	0.392
RRIRRRPPRLPRPRPRPWRMPRP	0.00176
RRIRHRPPRLPRPRPRPYCYPRP	-0.577
RRIRARPPRLPRPRPRPVIWPRP	0.322
RRIRNRPPRLPRPRPRPGEEPRP	-0.0107
RRIRHRPPRLPRPRPRPLPPPRP	0.196
RRIRQRPPRLPRPRPRPHGRPRP	-0.0154

Sequence	shrunken log2 fold change
RRIRLRPPRLPRPRPRPILCPRP	-0.152
RRIRMRPPRLPRPRPRPCVQPRP	-0.0115
RRIRSRPPRLPRPRPRPHMHPRP	-0.202
RRIRARPPRLPRPRPRPLWPPRP	0.646
RRIRQRPPRLPRPRPRPSMSPRP	-0.393
RRIRYRPPRLPRPRPRPRKSPRP	0.117
RRIRERPPRLPRPRPRPQVPPRP	-0.103
RRIRQRPPRLPRPRPRPEQQPRP	-0.0316
RRIRNRPPRLPRPRPRPARHPRP	0.0771
RRIRERPPRLPRPRPRPQNRPRP	-0.281
RRIRGRPPRLPRPRPRPVACPRP	0.72
RRIRPRPPRLPRPRPRPGAHPRP	0.355
RRIRTRPPRLPRPRPRPRGWPRP	0.897
RRIRNRPPRLPRPRPRPGTGPRP	-0.127
RRIRIRPPRLPRPRPRPRDQPRP	-0.0489
RRIRVRPPRLPRPRPRPHWKPRP	-0.14
RRIRQRPPRLPRPRPRPKNSPRP	-0.536
RRIRCRPPRLPRPRPRPSKTPRP	-0.0722
RRIRSRPPRLPRPRPRPIPNPRP	-0.432
RRIRFRPPRLPRPRPRPDWTPRP	0.039
RRIRARPPRLPRPRPRPGMDPRP	0.543
RRIRWRPPRLPRPRPRPHHTPRP	-0.313
RRIRPRPPRLPRPRPRPTVRPRP	0.0204
RRIRQRPPRLPRPRPRPVISPRP	0.0289
RRIRKRPPRLPRPRPRPAHMPRP	0.686

Sequence	shrunken log2 fold change
RRIRTRPPRLPRPRPRPSWDPRP	-0.262
RRIRFRPPRLPRPRPRPQDMPRP	0.028
RRIRQRPPRLPRPRPRPVTGPRP	0.0279
RRIRIRPPRLPRPRPRPVEGPRP	-0.308
RRIRERPPRLPRPRPRPGRYPRP	-0.443
RRIRGRPPRLPRPRPRPGAKPRP	0.924
RRIRSRPPRLPRPRPRPCYTPRP	-0.0751
RRIRSRPPRLPRPRPRPPNAPRP	0.0817
RRIRARPPRLPRPRPRPVTIPRP	-0.207
RRIRERPPRLPRPRPRPHHVPRP	0.00979
RRIRFRPPRLPRPRPRPHDEPRP	0.099
RRIRFRPPRLPRPRPRPNGGPRP	0.000932
RRIRYRPPRLPRPRPRPKTWPRP	-0.132
RRIRERPPRLPRPRPRPRSQPRP	-0.341
RRIRIRPPRLPRPRPRPSKMPRP	-1.18
RRIRQRPPRLPRPRPRPKKGPRP	0.124
RRIRTRPPRLPRPRPRPQISPRP	-0.024
RRIRFRPPRLPRPRPRPQSNPRP	-0.354
RRIRQRPPRLPRPRPRPKMNPRP	-0.328
RRIRMRPPRLPRPRPRPVHHPRP	0.00757
RRIRPRPPRLPRPRPRPHQQPRP	-0.14
RRIRGRPPRLPRPRPRPLHWPRP	0.627
RRIRPRPPRLPRPRPRPRTTPRP	0.332
RRIRHRPPRLPRPRPRPQPQPRP	-0.00539
RRIRVRPPRLPRPRPRPHPHPRP	-0.161

Sequence	shrunken log2 fold change
RRIRARPPRLPRPRPRPQWIPRP	-0.0374
RRIRDRPPRLPRPRPRPAHYPRP	0.0963
RRIRIRPPRLPRPRPRPVYHPRP	-0.262
RRIRGRPPRLPRPRPRPTYKPRP	0.937
RRIRPRPPRLPRPRPRPTRVPRP	0.547
RRIRFRPPRLPRPRPRPSLYPRP	-0.594
RRIRPRPPRLPRPRPRPWFQPRP	-0.21
RRIRQRPPRLPRPRPRPWQHPRP	-0.0358
RRIRMRPPRLPRPRPRPWDLPRP	0.36
RRIRRRPPRLPRPRPRPINRPRP	0.0995
RRIRMRPPRLPRPRPRPPQVPRP	0.995
RRIRFRPPRLPRPRPRPWAFPRP	-0.161
RRIRIRPPRLPRPRPRPMNTPRP	-0.207
RRIRMRPPRLPRPRPRPAGSPRP	0.2
RRIRGRPPRLPRPRPRPDKSPRP	0.18
RRIRDRPPRLPRPRPRPWYHPRP	-0.0258
RRIRPRPPRLPRPRPRPCPFPRP	-0.371
RRIRPRPPRLPRPRPRPVMVPRP	0.171
RRIRERPPRLPRPRPRPATHPRP	-0.264
RRIRARPPRLPRPRPRPTRKPRP	0.574
RRIRARPPRLPRPRPRPSECPRP	0.145
RRIRCRPPRLPRPRPRPVHSPRP	-0.107
RRIRARPPRLPRPRPRPSKVPRP	-0.0951
RRIRTRPPRLPRPRPRPLKIPRP	0.0669
RRIRTRPPRLPRPRPRPMVHPRP	-0.00211

Sequence	shrunken log2 fold change
RRIRIRPPRLPRPRPRPRWCPRP	-0.11
RRIRARPPRLPRPRPRPEKYPRP	0.101
RRIRNRPPRLPRPRPRPPRPPRP	0.704
RRIRMRPPRLPRPRPRPWAHPRP	-0.091
RRIRVRPPRLPRPRPRPACSPRP	-0.0142
RRIRERPPRLPRPRPRPNMMPRP	-0.612
RRIRRRPPRLPRPRPRPWYVPRP	0.0457
RRIRQRPPRLPRPRPRPTESPRP	0.105
RRIRMRPPRLPRPRPRPEVGPRP	2.56
RRIRVRPPRLPRPRPRPSKRPRP	-0.229
RRIRERPPRLPRPRPRPMMIPRP	-0.251
RRIRYRPPRLPRPRPRPEWWPRP	-0.0484
RRIRHRPPRLPRPRPRPRQKPRP	-0.01
RRIRQRPPRLPRPRPRPPHLPRP	0.205
RRIRMRPPRLPRPRPRPGGTPRP	0.722
RRIRGRPPRLPRPRPRPPGLPRP	0.786
RRIRFRPPRLPRPRPRPTGMPRP	0.00753
RRIRKRPPRLPRPRPRPMAQPRP	-0.0932
RRIRCRPPRLPRPRPRPFTNPRP	-0.685
RRIRARPPRLPRPRPRPKTIPRP	0.038
RRIRYRPPRLPRPRPRPMDYPRP	-0.218
RRIRFRPPRLPRPRPRPLACPRP	-0.162
RRIRYRPPRLPRPRPRPATTPRP	-0.415
RRIRARPPRLPRPRPRPKIIPRP	-0.287
RRIRIRPPRLPRPRPRPMDCPRP	-0.115

Sequence	shrunken log2 fold change
RRIRRRPPRLPRPRPRPYKYPRP	-0.415
RRIRIRPPRLPRPRPRPNMHPRP	-0.805
RRIRHRPPRLPRPRPRPQNMPRP	-0.731
RRIRSRPPRLPRPRPRPPKKPRP	0.282
RRIRWRPPRLPRPRPRPRWTPRP	0.386
RRIRERPPRLPRPRPRPFYAPRP	-0.526
RRIRCRPPRLPRPRPRPLWWPRP	0.204
RRIRERPPRLPRPRPRPINRPRP	-0.017
RRIRCRPPRLPRPRPRPLFQPRP	-0.417
RRIRLRPPRLPRPRPRPSRFPRP	-0.211
RRIRFRPPRLPRPRPRPVSPPRP	-0.172
RRIRGRPPRLPRPRPRPGFWPRP	0.581
RRIRFRPPRLPRPRPRPAGHPRP	0.153
RRIRDRPPRLPRPRPRPFFKPRP	-0.127
RRIRPRPPRLPRPRPRPMGEPRP	-0.231
RRIRQRPPRLPRPRPRPKSTPRP	-0.228
RRIRMRPPRLPRPRPRPLNAPRP	0.35
RRIRRRPPRLPRPRPRPFEAPRP	1.04
RRIRDRPPRLPRPRPRPRHAPRP	0.324
RRIRCRPPRLPRPRPRPLCAPRP	0.12
RRIRCRPPRLPRPRPRPELRPRP	0.0185
RRIRFRPPRLPRPRPRPMYPPRP	-0.249
RRIRCRPPRLPRPRPRPCMFPRP	-0.625
RRIRPRPPRLPRPRPRPHLIPRP	-0.287
RRIRARPPRLPRPRPRPFVIPRP	0.0345
